Data from patent publication US20160115226A1 (SINGH MOLECULAR MEDICINE, published 2016).
Where two headings read alike, the source gives them in different places.

What was measured:
[1] = target: GST-STAT3 (16 kDa monovalent antigen, Creative BioMart #STAT3-1476H) (UniProt P40763)
[2] = target: GST-STAT3 (16 kDa monovalent antigen, Creative BioMart #STAT3-1476H) (UniProt P40763); remark: listed apart in the source
[3] = target: GST-STAT3 (16 kDa monovalent antigen, Creative BioMart #STAT3-1476H) (UniProt P40763); remark: listed apart in the source
[4] = target: endogenous STAT3 in human cancer cell lysates (MDA-MB-231, PANC-1, DU145) (human, UniProt P40763 2-770)
Sequence of endogenous STAT3 in human cancer cell lysates (MDA-MB-231, PANC-1, DU145) (P40763 2-770 limits assumed): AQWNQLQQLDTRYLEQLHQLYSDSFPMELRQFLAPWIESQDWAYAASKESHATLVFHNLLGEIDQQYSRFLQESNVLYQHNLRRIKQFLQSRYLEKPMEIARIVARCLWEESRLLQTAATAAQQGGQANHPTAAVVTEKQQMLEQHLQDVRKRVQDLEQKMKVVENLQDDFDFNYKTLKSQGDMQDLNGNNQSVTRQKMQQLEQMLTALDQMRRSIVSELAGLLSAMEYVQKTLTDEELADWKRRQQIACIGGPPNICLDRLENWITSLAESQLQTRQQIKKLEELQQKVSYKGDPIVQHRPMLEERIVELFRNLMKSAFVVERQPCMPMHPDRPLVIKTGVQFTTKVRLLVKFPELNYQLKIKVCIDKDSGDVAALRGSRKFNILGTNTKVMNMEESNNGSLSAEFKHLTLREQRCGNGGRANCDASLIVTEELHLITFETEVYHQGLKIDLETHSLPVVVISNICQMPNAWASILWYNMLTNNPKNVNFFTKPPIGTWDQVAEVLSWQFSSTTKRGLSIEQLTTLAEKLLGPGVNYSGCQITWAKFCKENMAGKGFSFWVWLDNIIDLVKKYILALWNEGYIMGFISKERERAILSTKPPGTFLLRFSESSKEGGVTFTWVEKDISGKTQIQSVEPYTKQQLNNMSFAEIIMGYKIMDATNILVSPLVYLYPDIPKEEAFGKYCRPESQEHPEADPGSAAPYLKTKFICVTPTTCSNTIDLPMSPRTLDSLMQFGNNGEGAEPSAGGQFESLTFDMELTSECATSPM

| Molecule | Kd [1] [nM] | koff [1] [s⁻¹] | kon [1] [M⁻¹ s⁻¹] | Kd [2] [nM] | koff [2] [s⁻¹] | kon [2] [M⁻¹ s⁻¹] | Kd [3] [nM] | koff [3] [s⁻¹] | kon [3] [M⁻¹ s⁻¹] | binding result [4] |
| --- | --- | --- | --- | --- | --- | --- | --- | --- | --- | --- |
| anti-KRAS (negative control) (VHH) | 67.5 | 0.000801 | 11900 | 4.32 | 0.000386 | 89300 | 29.2 | 0.00048 | 16500 | – |
| STAT3 VHH13 (SEQ ID NO:3) produced and isolated from mammalian cells (VHH) VHH: HVQLVESGGGSVQAGGSLRLSCAASGANGGRSCMGWFRQVPGKEREGVSGISTGGLITYYADSVKGRFTISQDNTKNTLYLQMNSLKPEDTAMYYCATSRFDCYRGSWFNRYMYNSWGQGTQVTVSS | – | – | – | – | – | – | – | – | – | binds |
